Assay results taken from patent US20220098305A1 (Hoffmann-La Roche, published 2022).

Tests used:
human ICOS [1] = biological target: T1, human ICOS (human, UniProt Q9Y6W8 21-199); experiment: cell-based or functional assay
T1 sequence: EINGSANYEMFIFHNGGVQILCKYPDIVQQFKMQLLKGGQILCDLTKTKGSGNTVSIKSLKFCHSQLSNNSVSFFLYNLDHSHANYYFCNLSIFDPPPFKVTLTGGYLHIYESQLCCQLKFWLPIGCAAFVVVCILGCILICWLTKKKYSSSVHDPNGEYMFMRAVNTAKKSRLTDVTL

human ICOS [2] = biological target: T1, human ICOS; experiment: flow cytometry, CHO cells expressing human ICOS
human ICOS [3] = biological target: T1, human ICOS; experiment: flow cytometry on CHO cells expressing human ICOS, PE-labelled secondary antibody; y axis printed LOG10(MFI PE)
human ICOS [4] = biological target: T1, human ICOS; experiment: as above; remark: listed apart in the source
human ICOS [5] = biological target: T1, human ICOS; experiment: flow cytometry on CHO cells stably expressing human ICOS, PE-labelled secondary antibody, median fluorescence intensity (MFI)
Experimental: (§1) Briefly, suspension cells were harvested, counted, checked for viability and re-suspended at 1 million cells per ml in FACS buffer (PBS with 0.1% BSA). […] The staining was fixed for 20 min at 4° C. in the dark, using 75 μl of 1% PFA in FACS buffer per well.
(§2) Fluorescence was analyzed by FACS using a FACS Fortessa (Software FACS Diva). Binding curves and EC50 values were obtained using GraphPadPrism 7.

human ICOS [6] = biological target: T1, human ICOS; experiment: flow cytometry, CHO cells expressing human ICOS; remark: listed apart in the source
Experimental: as §1, §2

human ICOS [7] = biological target: T1, human ICOS; experiment: flow cytometry, SR cells
human FAP = biological target: T2, human FAP (human, UniProt Q12884 1-760); experiment: flow cytometry, NIH/3T3-huFAP clone 19 cells
T2 construct: also called hu FAP

human ICOS [8] = biological target: T1, human ICOS; experiment: flow cytometry on SR cells expressing human ICOS, geometric MFI

Row | Binder | EC50 of activation of Jurkat-NFAT reporter cell line (human ICOS [1]) | Max (Counts/sec), Jurkat-NFAT reporter cell line (human ICOS [1]) | EC50 (human ICOS [2]) | Max (Log10(MFI)) (human ICOS [2]) | EC50 (read off the curve) (human ICOS [3]) | EC50 (read off the curve) (human ICOS [4]) | EC50 (read off the curve) (human ICOS [5]) | EC50 (human ICOS [6]) | EC50 (human ICOS [7]) | EC50 (human FAP) | EC50 (read off the curve) (human ICOS [8])
1 | Molecule 27 (ICOS H009v1_3) (antibody, human IgG1, kappa, L234A L235A, V domains shown, Human IgG format) VH: EVQLVESGGGLVQPGRSLRLSCTASGFTFSDYWMNWVRQAPGKGLEWVAQIRNKPYNYETYYAASVKGRFTISRDDSKSIAYLQMNSLKTEDTAVYYCTWPRLRSSDWHFDVWGKGTTVTVSS VL: DIQMTQSPSSLSASVGDRVTITCQASQDINKNIAWYQQKPGKAPKLLIWYTSTLQTGVPSRFSGSGSGTDFTFTISSLQPEDIATYYCLQFDNLYTFGQGTKLEIKR | ~7.99 nM | 47400 Counts/sec | 2.7 nM | 6.85 Log10(MFI) |  |  |  |  |  |  | 
2 | Molecule 28 (ICOS 1143v2) (antibody, human IgG1, kappa, L234A L235A, V domains shown, Human IgG format; also called parent antibody of Molecules 29-31) VH: QSLEESGGDLVKPGASLTLTCKASGFDFSSAYDMSWVRQAPGKGLEWIGVIYYGDGITYYATSVKGRFTISKTSSTTVPLQMTSLTAADTATYFCARGAFLGSSYYLSLWGQGTLVTVSS VL: AIDMTQTPASVEAAVGGTVTINCQASENIYNWLAWYQQKPGQPPKLLIYDASKLASGVPSRFSASGSGTQFTLTISAVESADAATYYCQQAYTYGNIDNAFGGGTEVVVSR | 28 nM | 52300 Counts/sec | 2.56 nM | 4.88 Log10(MFI) | ~3 nM |  |  |  |  |  | 
3 | Molecule 29 (ICOS H1143v2_1) (antibody, human IgG1, kappa, L234A L235A, V domains shown, Human IgG format) VH: EVQLLESGGGLVQPGGSLRLSCAASGFDFSSAYDMSWVRQAPGKGLEWVSVIYYGDGITYYADSVKGRFTISRDNSKNTLYLQMNSLRAEDTAVYFCARGAFLGSSYYLSLWGQGTLVTVSS VL: DIQMTQSPSSLSASVGDRVTITCRASENIYNWLAWYQQKPGKAPKLLIYDASKLASGVPSRFSGSGSGTDFTLTISSLQPEDFATYYCQQAYTYGNIDNAFGGGTKVEIKR | 27.6 nM | 63800 Counts/sec | 5.2 nM | 2.38 Log10(MFI) | ~6 nM |  |  |  |  |  | 
4 | Molecule 30 (ICOS H1143v2_2) (antibody, human IgG1, kappa, L234A L235A, V domains shown, Human IgG format) VH: EVQLLESGGGLVQPGGSLRLSCAASGFDFSSAYDMSWVRQAPGKGLEWVSVIYYGDGITYYADSVKGRFTISKTSSKTTLYLQMNSLRAEDTAVYFCARGAFLGSSYYLSLWGQGTLVTVSS VL: DIQMTQSPSSLSASVGDRVTITCRASENIYNWLAWYQQKPGKAPKLLIYDASKLASGVPSRFSGSGSGTDFTLTISSLQPEDFATYYCQQAYTYGNIDNAFGGGTKVEIKR | 29.4 nM | 55300 Counts/sec | 2.25 nM | 2.75 Log10(MFI) | ~2 nM |  |  |  |  |  | 
5 | Molecule 31 (ICOS H1143v2_3) (antibody, human IgG1, kappa, L234A L235A, V domains shown, Human IgG format) VH: EVQLLESGGGLVQPGGSLRLSCAASGFDFSSAYDMSWVRQAPGKGLEWIGVIYYGDGITYYADSVKGRFTISRDNSNTLYLQMNSLRAEDTAVYFCARGAFLGSSYYLSLWGQGTLVTVSS VL: DIQMTQSPSSLSASVGDRVTITCRASENIYNWLAWYQQKPGKAPKLLIYDASKLASGVPSRFSGSGSGTDFTLTISSLQPEDFATYYCQQAYTYGNIDNAFGGGTKVEIKR | 23.2 nM | 52000 Counts/sec | 1.75 nM | 4.44 Log10(MFI) | ~2 nM |  |  |  |  |  | 
6 | Molecule 32 (ICOS 1138) (antibody, human IgG1, kappa, L234A L235A, V domains shown, Human IgG format; also called parental antibody of Molecules 33-35) VH: QSLEESGGDLVKPGASLTLTCTASGFDLSSYYYMSWVRQAPGKGLEWIASIYADIYGGTTHYASWAKGRFTISKTSSTTVTLQMTSLTAADTATYFCAREDGSRYGGSGYYNLWGPGTLVTVSS VL: ALVMTQTPSSVSAAVGGTVTINCQASQNIYSNLAWYQQKPGQPPKLLIYAASYLTSGVSSRFKGSGAGTQFTLTISGVESADAATYYCQQGHTTDNIDNAFGGGTEVVVKR | 38.7 nM | 28500 Counts/sec | 2.12 nM | 4.3 Log10(MFI) |  | ~2 nM |  |  |  |  | 
7 | Molecule 33 (ICOS H1138_1) (antibody, human IgG1, kappa, L234A L235A, V domains shown, Human IgG format) VH: EVQLLESGGGLVQPGGSLRLSCAASGFDLSSYYYMSWVRQAPGKGLEWVSSIYADIYGGTTHYASWAKGRFTISKTSSKTTLYLQMNSLRAEDTAVYFCAREDGSRYGGSGYYNLWGQGTLVTVSS VL: DIQMTQSPSSLSASVGDRVTITCRASQNIYSNLAWYQQKPGQPPKLLIYAASYLTSGVPSRFSGSGSGTDFTLTISSLQPEDFATYYCQQGHTTDNIDNAFGGGTKVEIKR | 41.4 nM | 41400 Counts/sec | 7.58 nM | 3.89 Log10(MFI) |  | ~8 nM |  |  |  |  | 
8 | Molecule 34 (ICOS H1138_2) (antibody, human IgG1, kappa, L234A L235A, V domains shown, Human IgG format) VH: EVQLLESGGGLVQPGGSLRLSCAASGFDLSSYYYMSWVRQAPGKGLEWVSSIYADIYGGTTHYASWAKGRFTISRDNSKNTLYLQMNSLRAEDTAVYFCAREDGSRYGGSGYYNLWGQGTLVTVSS VL: AIQMTQSPSSLSASVGDRVTITCRASQNIYSNLAWYQQKPGKPPKLLIYAASYLTSGVSSRFSGSGSGTDFTLTISSLQPEDFATYYCQQGHTTDNIDNAFGGGTKVEIKR | 34 nM | 38400 Counts/sec | 10.2 nM | 1.91 Log10(MFI) |  | ~10 nM |  |  |  |  | 
9 | Molecule 35 (ICOS H1138_3) (antibody, human IgG1, kappa, L234A L235A, V domains shown, Human IgG format) VH: EVQLLESGGGLVQPGGSLRLSCAASGFDLSSYYYMSWVRQAPGKGLEWVSSIYADIYGGTTHYASWAKGRFTISKTSSTTLYLQMNSLRAEDTAVYFCAREDGSRYGGSGYYNLWGQGTLVTVSS VL: AIQMTQSPSSLSASVGDRVTITCRASQNIYSNLAWYQQKPGKPPKLLIYAASYLTSGVSSRFSGSGSGTDFTLTISSLQPEDFATYYCQQGHTTDNIDNAFGGGTKVEIKR | 99.4 nM | 59500 Counts/sec | 2.72 nM | 4.55 Log10(MFI) |  | ~3 nM |  |  |  |  | 
10 | Molecule 1 (JMab136 IgG) (antibody, V domains shown, IgG) VH: not shown VL: DIQMTQSPSSVSASVGDRVTITCRASQGISRLLAWYQQKPGKAPKLLIYVASSLQSGVPSRFSGSGSGTDFTLTISSLQPEDFATYYCQQANSFPWTFGQGTKVEIK |  |  |  |  |  |  | ~2 nM | 0.0023 nM |  |  | 
11 | Molecule 21, bispecific 2+1 anti-ICOS (1143v1)/anti-FAP (4B9) huIgG1 P329GLALA kih (bispecific antibody) heavy 1: QSLEESGGDLVKPGASLTLTCKASGFDFSSAYDMSWVRQAPGKGLEWIGVVYYGDGITYYATWAKGRFTISKTSSTTVPLQMTSLTAADTATYFCARGAFLGSSYYLSLWGQGTLVTVSSASTKGPSVFPLAPSSKSTSGGTAALGCLVKDYFPEPVTVSWNSGALTSGVHTFPAVLQSSGLYSLSSVVTVPSSSLGTQTYICNVNHKPSNTKVDKKVEPKSCDKTHTCPPCPAPEAAGGPSVFLFPPKPKDTLMISRTPEVTCVVVDVSHEDPEVKFNWYVDGVEVHNAKTKPREEQYNSTYRVVSVLTVLHQDWLNGKEYKCKVSNKALGAPIEKTISKAKGQPREPQVCTLPPSRDELTKNQVSLSCAVKGFYPSDIAVEWESNGQPENNYKTTPPVLDSDGSFFLVSKLTVDKSRWQQGNVFSCSVMHEALHNHYTQKSLSLSPGGGGGSGGGGSGGGGSGGGGSEIVLTQSPGTLSLSPGERATLSCRASQSVTSSYLAWYQQKPGQAPRLLINVGSRRATGIPDRFSGSGSGTDFTLTISRLEPEDFAVYYCQQGIMLPPTFGQGTKVEIK heavy 2: not shown light: AIDMTQTPASVEAAVGGTVTINCQASENIYNWLAWYQQKPGQPPKLLIYDASKLASGVPSRFSASGSGTQFTLTISAVESADAATYYCQQAYTYGNIDNAFGGGTEVVVSRTVAAPSVFIFPPSDEQLKSGTASVVCLLNNFYPREAKVQWKVDNALQSGNSQESVTEQDSKDSTYSLSSTLTLSKADYEKHKVYACEVTHQGLSSPVTKSFNRGEC |  |  |  |  |  |  |  |  | 0.00057 nM | 0.00501 nM | ~0.5 nM
12 | Molecule 44, bispecific 2+1 anti-ICOS (1143)/anti-FAP (4B9) huIgG1 P329GLALA kih (bispecific antibody) heavy 1: QSLEESGGDLVKPGASLTLTCKASGFDFSSAYDMSWVRQAPGKGLEWIGSVYYGDGITYYATWAKGRFTISKTSSTTVPLQMTSLTAADTATYFCARGAFLGSSYYLSLWGQGTLVTVSSASTKGPSVFPLAPSSKSTSGGTAALGCLVKDYFPEPVTVSWNSGALTSGVHTFPAVLQSSGLYSLSSVVTVPSSSLGTQTYICNVNHKPSNTKVDKKVEPKSCDKTHTCPPCPAPEAAGGPSVFLFPPKPKDTLMISRTPEVTCVVVDVSHEDPEVKFNWYVDGVEVHNAKTKPREEQYNSTYRVVSVLTVLHQDWLNGKEYKCKVSNKALGAPIEKTISKAKGQPREPQVCTLPPSRDELTKNQVSLSCAVKGFYPSDIAVEWESNGQPENNYKTTPPVLDSDGSFFLVSKLTVDKSRWQQGNVFSCSVMHEALHNHYTQKSLSLSPGGGGGSGGGGSGGGGSGGGGSEIVLTQSPGTLSLSPGERATLSCRASQSVTSSYLAWYQQKPGQAPRLLINVGSRRATGIPDRFSGSGSGTDFTLTISRLEPEDFAVYYCQQGIMLPPTFGQGTKVEIK heavy 2: not shown light: AIDMTQTPASVEAAVGGTVTINCQASENIYNWLAWYQQKPGQPPKLLIYDASKLASGVPSRFSASGSGTQFTLTISAVESADAATYYCQQAYTYGNIDNAFGGGTEVVVSRTVAAPSVFIFPPSDEQLKSGTASVVCLLNNFYPREAKVQWKVDNALQSGNSQESVTEQDSKDSTYSLSSTLTLSKADYEKHKVYACEVTHQGLSSPVTKSFNRGEC |  |  |  |  |  |  |  |  | 0.00217 nM | 0.00434 nM | ~2 nM
